# US7851165B2, “Screening compounds for activity in modulating chloride ion transport” (Pharmos Bioscience A/S, priority 2005, dated 2010)
# How the values were obtained:
# [1] = system: Ostm1; test: Western blot of Ostm1 species after incubating fibroblasts with protease inhibitors; format: cell-based; details: fibroblasts incubated with protease inhibitor, FIG. 1 part (d)
# [2] = molecular target: T1, ClC-3, endogenous, from solubilized mouse brain membranes (mouse, UniProt P51791 1-818, limits assumed); test: co-immunoprecipitation from solubilized mouse brain membranes, Western blot
# T1 construct: Specificity control in the brain co-immunoprecipitation; also called CIC-3
# T1 sequence (looked up): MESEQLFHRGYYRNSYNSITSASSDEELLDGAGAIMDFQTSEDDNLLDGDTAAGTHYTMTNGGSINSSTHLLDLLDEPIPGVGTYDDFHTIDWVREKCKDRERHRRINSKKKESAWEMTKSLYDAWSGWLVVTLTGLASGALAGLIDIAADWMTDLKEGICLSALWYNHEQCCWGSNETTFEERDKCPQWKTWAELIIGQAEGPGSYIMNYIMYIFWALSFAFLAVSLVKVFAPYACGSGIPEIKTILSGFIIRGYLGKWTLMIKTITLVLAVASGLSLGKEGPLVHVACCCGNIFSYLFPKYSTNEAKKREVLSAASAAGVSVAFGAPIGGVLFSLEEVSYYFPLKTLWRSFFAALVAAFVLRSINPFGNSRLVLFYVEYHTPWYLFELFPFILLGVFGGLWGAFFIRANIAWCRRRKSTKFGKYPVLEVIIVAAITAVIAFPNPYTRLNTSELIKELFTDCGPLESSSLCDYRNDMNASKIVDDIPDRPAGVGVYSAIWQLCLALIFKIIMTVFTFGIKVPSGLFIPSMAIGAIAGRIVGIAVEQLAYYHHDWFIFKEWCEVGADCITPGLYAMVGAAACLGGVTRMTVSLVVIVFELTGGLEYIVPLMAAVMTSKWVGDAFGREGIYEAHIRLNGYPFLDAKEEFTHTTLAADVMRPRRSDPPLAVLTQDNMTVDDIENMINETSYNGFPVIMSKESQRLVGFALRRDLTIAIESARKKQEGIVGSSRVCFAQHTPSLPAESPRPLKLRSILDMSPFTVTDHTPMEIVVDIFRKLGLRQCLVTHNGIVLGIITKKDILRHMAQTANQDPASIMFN
# Text: (§1) ClC-7 and Ostm1 can be co-immunoprecipitated using endogenous material (FIG. part (d)) or overexpressed proteins (FIG. 6). […] Solubilized brain membranes from the genotypes indicated were directly loaded on the gel (input, lanes 1-3), or first immunoprecipitated with ClC-7 (lanes 4,5) or Ostm1 antibodies (lanes 6,7).
# (§2) Ostm1 or ClC-7 antibodies were crosslinked to protein A sepharose by dimethylpimelimidate. Brain membranes were pelleted and solubilized in lysis buffer (MES buffered saline pH 6.5, 1% Triton X-100, 2.5 mM CaCl_2, 2.5 mM MgCl_2). Non-solubilized material was removed by centrifugation at 70,000×g. Samples were incubated with protein A sepharose-antibody complexes for 2 h at 4° C. and washed 4× with lysis buffer. After elution with 100 μl 0.1 M glycine/Cl, pH 2.8, samples were neutralized and denatured using SDS sample buffer. Equivalent amounts of lysate and precipitate were separated by SDS-PAGE.
# (§3) Resulting Western blots were probed for the proteins indicated at right. Arrowheads, specific Ostm1 bands; *, non-specific bands. Equivalent amounts of lysates and precipitates were loaded.
# [3] = molecular target: T2, ClC-6, endogenous, from solubilized mouse brain membranes (mouse, UniProt O35454 1-870); test: as above
# T2 construct: Specificity control in the brain co-immunoprecipitation; also called CIC-6
# T2 sequence (looked up): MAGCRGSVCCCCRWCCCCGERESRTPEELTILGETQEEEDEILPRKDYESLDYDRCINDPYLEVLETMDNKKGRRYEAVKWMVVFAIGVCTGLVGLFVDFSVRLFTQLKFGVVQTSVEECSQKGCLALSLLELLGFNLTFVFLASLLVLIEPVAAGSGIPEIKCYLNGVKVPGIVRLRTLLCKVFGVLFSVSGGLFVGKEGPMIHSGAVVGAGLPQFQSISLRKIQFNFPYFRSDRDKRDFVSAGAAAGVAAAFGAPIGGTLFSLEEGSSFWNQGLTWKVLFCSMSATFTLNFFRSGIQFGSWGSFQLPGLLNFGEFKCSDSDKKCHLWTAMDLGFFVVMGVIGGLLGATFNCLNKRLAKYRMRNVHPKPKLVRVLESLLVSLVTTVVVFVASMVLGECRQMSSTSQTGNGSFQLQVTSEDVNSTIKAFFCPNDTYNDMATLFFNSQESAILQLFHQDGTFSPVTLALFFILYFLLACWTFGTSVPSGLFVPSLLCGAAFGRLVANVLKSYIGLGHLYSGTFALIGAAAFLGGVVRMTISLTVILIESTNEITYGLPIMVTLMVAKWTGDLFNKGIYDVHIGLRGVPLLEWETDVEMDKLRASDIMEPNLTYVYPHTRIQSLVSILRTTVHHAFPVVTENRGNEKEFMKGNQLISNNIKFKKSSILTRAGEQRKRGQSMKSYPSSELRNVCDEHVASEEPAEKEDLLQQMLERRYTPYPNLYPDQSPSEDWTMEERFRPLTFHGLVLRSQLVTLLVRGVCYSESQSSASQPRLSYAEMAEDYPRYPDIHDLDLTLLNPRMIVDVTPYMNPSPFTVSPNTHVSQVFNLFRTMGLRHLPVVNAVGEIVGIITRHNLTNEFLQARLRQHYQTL
# Text: as §1, §2, §3
# [4] = molecular target: T3, lamp-2, endogenous, from solubilized mouse brain membranes (mouse, UniProt P17047 26-415, limits assumed); test: as above
# T3 construct: Specificity control in the brain co-immunoprecipitation
# T3 sequence (looked up): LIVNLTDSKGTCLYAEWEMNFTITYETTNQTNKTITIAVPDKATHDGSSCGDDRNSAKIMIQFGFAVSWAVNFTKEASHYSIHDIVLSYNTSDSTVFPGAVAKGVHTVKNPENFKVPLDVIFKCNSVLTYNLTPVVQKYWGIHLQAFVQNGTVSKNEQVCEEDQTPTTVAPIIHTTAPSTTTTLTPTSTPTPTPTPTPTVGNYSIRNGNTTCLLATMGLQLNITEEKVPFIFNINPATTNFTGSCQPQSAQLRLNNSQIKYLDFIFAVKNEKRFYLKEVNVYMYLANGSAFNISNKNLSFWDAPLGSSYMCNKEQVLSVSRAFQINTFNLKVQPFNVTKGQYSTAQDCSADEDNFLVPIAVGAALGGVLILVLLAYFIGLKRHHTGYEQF
# Text: as §1, §2, §3
Molecule,proportion of the large (~80 kD) Ostm1 species versus the smaller ones [1],binding result [2],binding result [3],binding result [4]
CC(=O)N[C@@H](CC(C)C)C(=O)N[C@@H](CC(C)C)C(=O)N[C@H](C=O)CCCNC(=N)N [leupeptin],increased the proportion of the large Ostm1 species,,,
"Ostm1 (Osteopetrosis-associated transmembrane protein 1), endogenous, from solubilized mouse brain membranes (other, UniProt Q8BGT0 35-338, looked up, N-linked glycosylation of the luminal domain, Endogenous protein immunoprecipitated from Triton X-100 solubilized mouse brain membranes; also called product of the OSTM1 gene) ALPFTSSRHPGFADLLSEQQLLEVQDLTLSLLQGGGLGPLSLLPPDLPDLEPECRELLMDFANSSAELTACMVRSARPVRLCQTCYPLFQQVAIKMDNISRNIGNTSEGPRCGGSLLTADRMQIVLMVSEFFNSTWQEANCANCLTNNGEDLSNNTEDFLSLFNKTLACFEHNLQGHTYSLLPPKNYSEVCRNCKEAYKNLSLLYSQMQKLNGLENKAEPETHLCIDVEDAMNITRKLWSRTFNCSVTCSDTVSVVAVSVFILFLPVVFYLSSFLHSEQKKRKLILPKRLKSSTSFANIQENAT",,no binding,no binding,no binding
